Test system: cytochrome c
Assay: Tandem mass spectrometry of cytochrome c acetylation in transfected SH-SY5Y cells
Format: cell-based, mouse
Conditions: hSIRT3 cotransfected with cytochrome c in SH-SY5Y cells; FIG. 3
Description: SH-SY5Y cells were cultured in Dulbecco's Modified Eagle's Medium (DMEM) supplemented with 10% Fetal Calf Serum (FCS). SH-SY5Y cells were transfected with Lipofectamine 2000 (Invitrogen, Carlsbad, Calif.). Granule neuron cultures were prepared from cerebella of postnatal day 5 mouse pups. Neurons were placed on polyornithine-coated 96-well plates and grown in Basal Medium Eagle (BME) (Sigma, St. Louis, Mo.) supplemented with 10% calf serum (Hyclone Laboratories, Logan, Utah), 25 mM KCl, 2 mM glutamine, penicillin, and streptomycin. One day after cultures were prepared they were treated with 10 μM of the antimitotic agent cytosine-D-arabinofuranoside (Sigma, St. Louis, Mo.) to prevent the proliferation of non-neuronal cells.
A large-scale Flag-immunoprecipitation followed by elution with 3× Flag peptide was performed on cell extracts from 10×15 cm-plates of SH-SY5Y cells transfected with pcDNA-mouse cytochrome c-Flag+/−pcDNA-hSIRT3-HA. Purified proteins were separated by SDS-PAGE, and the band corresponding to cytochrome c was excised and analyzed by MS/MS.

B1: hSIRT3: human SIRT3 deacetylase expressed from transfected pcDNA-hSIRT3-HA vector (protein)
chain: MAFWGWRAAAALRLWGRVVERVEAGGGVGPFQACGCRLVLGGRDDVSAGLRGSHGARGEPLDPARPLQRPPRPEVPRAFRRQPRAAAPSFFFSSIKGGRRSISFSVGASSVVGSGGSSDKGKLSLQDVAELIRARACQRVVVMVGAGISTPSGIPDFRSPGSGLYSNLQQYDLPYPEAIFELPFFFHNPKPFFTLAKELYPGNYKPNVTHYFLRLLHDKGLLLRLYTQNIDGLERVSGIPASKLVEAHGTFASATCTVCQRPFPGEDIRADVMADRVPRCPVCTGVVKPDIVFFGEPLPQRFLLHVVDFPMADLLLILGTSLEVEPFASLTEAVRSSVPRLLINRDLVGPLAWHPRSRDVAQLGDVVHGVESLVELLGWTEEMRDLVQRETGKLDGPDK
modifications: left off: small tags and cut ends
notes: human SIRT3 deacetylase expressed from transfected pcDNA-hSIRT3-HA vector
acetylation of residues K40 and K74 of cytochrome c: no longer detected

Source: patent US20150233949A1, “DETECTION AND MODULATION OF CYTOCHROME C ACETYLATION” (President and Fellows of Harvard College, priority 2008, published 2015)
